From publication PMC10577085 (ACS infectious diseases, 2023) come the findings set out here.

The Kd is the equilibrium constant for the complex coming apart. Higher therefore signals a looser complex. As a reminder, the stoichiometry N is a count of units in the complex or per binding partner.

Residue numbers refer to the chain shown, from its start. Names may count otherwise.

One series deals with Cpl-1 (Streptococcus phage Cp1, UniProt P15057). Briefly: analytical size exclusion chromatography. In kind it is binding. For orientation: In gel filtration, larger molecules generally elute earlier.
Series [1] concerns the target SP-GH25 (uncultured virus). Description: SEC.
In series [2] the target is SP-CHAP (uncultured virus). Briefly: SEC.
Series [3] deals with SP-Amidase (uncultured virus). Briefly: SEC.
Series [4] addresses Cpl-1 Δtail (bacteriophage Cp-1) (UniProt P15057). Description: AUC.
The series “SEC” concerns the molecule itself. Briefly: SEC.

In turn, `C[N+](C)(C)CCO` [choline] yielded a Kd on Cpl-1 of about 5 mM.
Molecule SP-GH25 (enzyme) gave a stoichiometry N in series [1] of 2.
For SP-CHAP (enzyme), in series [2], the stoichiometry N was determined as 2.
For SP-Amidase (enzyme), in series [3], the stoichiometry N is 2.
Regarding “Cpl-1 Δtail (from UniProt P15057 1-323) (domain or fragment)”, the stoichiometry N in series [4] turned out to be 2.

B1: Cpl-1 DNP→AAA (enzyme, bacteriophage Cp-1, UniProt P15057 1-339, looked up)
chain: MVKKNDLFVDVSSHNGYDITGILEQMGTTNTIIKISESTTYLNPCLSAQVEQSNPIGFYHFARFGGDVAEAEREAQFFLDNVPMQVKYLVLDYEDDPSGDAQANTNACLRFMQMIADAGYKPIYYSYKPFTHDNVDYQQILAQFPNSLWIAGYGLNDGTANFEYFPSMDGIRWWQYSSNPFDKNIVLLDDEEDDKPKTAGTWKQDSKGWWFRRNNGSFPYNKWEKIGGVWYYFDSKGYCLTSEWLKDNEKWYYLKDNGAMATGWVLVGSEWYYMDDSGAMVTGWVKYKNNWYYMTNERGNMVSNEFIKSGKGWYFMNTNGELAAAASFTKEPDGLITVA
As for B1, in the series “SEC”, the “stoichiometry N” value was 2.

B2: Cpl-1 Y238A (enzyme, bacteriophage Cp-1, UniProt P15057 1-339, looked up)
chain: B1 chain with Y238A, A324D, A325N, A326P
For B2, the “stoichiometry N” value in the series “SEC” is 2.

B3: Cpl-1 F218A (enzyme, bacteriophage Cp-1, UniProt P15057 1-339, looked up)
chain: B1 chain with F218A, A324D, A325N, A326P
For the molecule B3, in the series “SEC”, the “stoichiometry N” value worked out at 2.

B4: Cpl-1 W210A (enzyme, bacteriophage Cp-1, UniProt P15057 1-339, looked up)
chain: B1 chain with W210A, A324D, A325N, A326P
On to B4, for which the “stoichiometry N” value in “SEC” turned out to be 2.

B5: Cpl-1 W210A:F218A:Y238A triple mutant (enzyme, bacteriophage Cp-1, UniProt P15057 1-339, looked up)
chain: B1 chain with W210A, F218A, Y238A, A324D, A325N, A326P
As for B5, in “SEC”, the “stoichiometry N” value was determined as 2.

B6: Cpl-1 W210A:F218A (enzyme, bacteriophage Cp-1, UniProt P15057 1-339, looked up)
chain: B1 chain with W210A, F218A, A324D, A325N, A326P
As for B6, in “SEC”, the “stoichiometry N” value was determined as 2.

B7: Cpl-1 F218A:Y238A (enzyme, bacteriophage Cp-1, UniProt P15057 1-339, looked up)
chain: B1 chain with F218A, Y238A, A324D, A325N, A326P
In the case of B7, the “stoichiometry N” value in “SEC” turned out to be 2.

B8: Cpl-1 KEP→AAA (enzyme, bacteriophage Cp-1, UniProt P15057 1-339, looked up)
chain: B1 chain with A324D, A325N, A326P, K330A, E331A, P332A
In the case of B8, in the series “SEC”, the “stoichiometry N” value amounted to 2.
